Source: patent publication US20240269318A1

Columns and labels:
Conditions in all cases: remark: other sources report otherwise
[1] = biological target: T1, recombinant human alpha-synuclein aggregates (ab218819) (human), P37840; assay: ELISA on AS aggregates; antibody pre-heated 1 hr at 65 °C, measured immediately
[2] = biological target: T1, recombinant human alpha-synuclein …; assay: super-resolution microscopy; Cy3-SynO4 and Alexa Fluor 488-AS aggregates in differentiated SH-SY5Y cells
[3] = biological target: T1, recombinant human alpha-synuclein …; assay: ELISA on AS aggregates; antibody pre-heated 1 hr at 65 °C, stored overnight at 4 °C, measured the next day
[4] = biological target: T1, recombinant human alpha-synuclein …; assay: super-resolution imaging in differentiated SH-SY5Y cells loaded with AS aggregates; SynO4 delivered by TF-liposomes

maximal activity [1]: 22%
colocalization [2]: 75%
maximal activity [3]: 44%
detection between antibody and aggregates [4]: > 80%
B1: SynO4 antibody (Creative Biolabs, USA) (antibody)
chain 1: EVQLVESGGGLVQPKGSLKLSCAASGFTFNTYAMHWVRQAPGKGLEWVARIRSKSSNYATYYADSVKDRFTISRDDSQSMLYLQMNNLKTEDTAMYYCVRPLKWYFDVWGTGTTVTVSS
chain 2: QIVLTQSPAILSASPGEKVTMTCSASSTVNYMHWYQQKSGTSPKIWIYDTSKLASGVPARFSGSGSWTSYSLTISSMEAEDAATYYCQQWNSNPPTFGAGTKLELK
